Results on three molecules are retold here after US10975360B2, “Process for the modification of alkanes, fatty acids and fatty alcohols” (priority 2016, dated 2021).

The format of data set [1] is cell-based, P. pastoris. The method, then: (§1) Precultures of P. pastoris transformants were prepared in buffered complex glycerol media (BMGY). BMGY contained: 10 g/l yeast extract, 20 g/l peptone, 3.4 g/l yeast nitrogen base, 10 g/l ammonium sulfate, 100 mM potassium phosphate (pH 6), 0.4 mg/l biotin and 1% (v/v) glycerol. Erlenmeyer flasks (500 ml) containing 50 ml BMGY media were inoculated with single colonies of 24 h old YPD-agar cultures of P. pastoris KM71 mut^s3/CYP505E3 and incubated at 30° C. and 225 rpm for 24 h. The cultures were harvested using pre-weighed centrifuge tubes at 3000 g for 5 min and stored on ice until further use.
(§2) The main cultures for expression were prepared in buffered complex methanol media (BMMY) containing 10 g/l yeast extract, 20 g/l peptone, 3.4 g/l yeast nitrogen base, 10 g/l ammonium sulfate, 100 mM potassium phosphate (pH 6), 0.4 mg/l biotin and 0.5 or 1% (v/v) methanol. Harvested cells from precultures were resuspended in BMMY media to final concentration of 1 g WC per 40 ml (appx. 25 g/l). The resuspended cultures (100 ml) were transferred to 500 ml Erlenmeyer flasks and incubated at 25° C. and 225 rpm for 24 h. The cultures were then harvested at 3000 g for 5 min using pre-weighed centrifuge tubes.
(§3) Different transformants of Pichia pastoris KM71 harbouring the CYP505 genes for SEQ ID Nos 1 to 7 and 9 to 12 were grown and harvested as described above. The harvested cells were resuspended to give 1 g wet cell weight in 40 ml MOPS buffer (200 mM, 100 mM glucose, 100 mM glycerol, pH 8) and 1 ml aliquots of these cell suspensions were transferred to 40 ml amber vials. Dodecane, 1-dodecanol and 1-tetradecanol were added neat to these cell suspensions to give final concentrations of 200 mM in the case of the alcohols and 1 M in the case of dodecane while in the case of dodecanoic acid 20 μl of a 500 mM stock solution (in DMSO) was added to give a final concentration of 10 mM. Transformants harbouring the CYP505 genes for SEQ ID Nos 1 to 4 were tested for the biotransformation of 1-dodecanol, 1-tetradecanol, dodecanoic acid, tetradecanoic acid and dodecane, while those harbouring the CYP505 genes for SEQ ID Nos 5 to 7 and 9 to 12 were only tested for the biotransformation of 1-dodecanol and dodecanoic acid. The biotransformations were incubated at 25° C. and 225 rpm for 24 h. Extractions were performed using ethyl acetate (500 μl×2). The extracts were analyzed using GC/MS.

The nature of data set [2]: Whole cell biotransformation of dodecane by CYP505s expressed in P. pastoris. Format: cell-based. The settings on record: whole cells of P. pastoris; for products produced from dodecane (GC-MS): 1 M dodecane, 24 h; for ω-7 hydroxylase activity C12alk: C12 alkane, GC-MS peak height. The method, then:
as §1, §2, §3

B1: CYP505Pe: CYP505 cytochrome P450 monooxygenase from Penicillium expansum, SEQ ID No 4 (protein, listed as Penicillium expansum)
chain: MKDMESIPGPKPLPVVGNLFDIDLENGLQSIIKMAHEFGPLFQITINGQKQIFATSQALVDELCDETRFHKAVMGGIQKLRMLAKDGLFTAYHGERGWGIAHRILMPAFGPLRIRDMFEDMSDVAQQLCFKWARQGSSTSINICDDFTRLTLDTIALCTMGFRLNSYYNSNALHPFIESMLYVLKEAELQSTLPGVANCMRVKAQRRMSKHIDAMRSMARNLIEERRAKPEPVDDLLNTLLNGRDPITGEGMSDDLIISNIITFLIAGHETTSGLLSFTFYYLLQNQDVLERARNEVDEVTGVGPITVQHLAKLPYIDAIMKESLRLMPTAPAFTVTPQKPEVLGGKWMINTGDSVNLLLPVCLRDETVFGPDAGEFRPNRMLEENFSKLPPNSWKPFGNGERGCIGRAFAWQEAQLVVALVLRTFDLAAEDPYYKLRIKETLTIKPDGFRIRATLRHGKSATALSQNNISVGAAASPASSTYLAGNENGRDAAGGQPVSFFYGSNSGTCKALTHRLASTMMTRGFTDQNIAPLDSAVDNLPRDQPTIIITTTYDGQPTDDAKKFVAWLESGNSPSLQGVSYAVFGCGHQDWTKTFYRIPILIDALMYKAGATRLATRGAANAAISDLFSDLEVWEETNLLPGLRESFNPPNNSNFVPLEPHQLQISINKPTRVGMHRDLIEAKVTAIRTLTSPGAPEKRHLEFCIPGETTLRPGDHLNILPVNPPSTVSRALARFNLAPDHSITFESSNALDLPQATPVSAAELFSSYLELSQPATRNNLKELASTTPSDGEKQELLHLYDSYDSLIRAKRASVLDLLEQFTSVTLPITTFISMLPALRVRTYSLSMAPSFKPLHYSLTFSVINEPAWNGNGRYLGVASNYLASLNLGSILYISPRPAKDAFHLPTDQSSKPIIMICAGSGLAPFRSFIQDRMLWQQQDKTLAKALLFFGCRSPQLDDLYHDELSQFEAAGVVEVRRAYSKVPNHYLAKGCRYVQHRLLTETETIQDMWAQDAIIYVCGSGNLAKGVKAVLESMLGTLSERYITEIF
Regarding B1, in data set [1], the “products produced from tetradecanoic acid (GC-MS)” value is on record as “only 7-hydroxy tetradecanoic acid” and the “ω-7 hydroxylase activity C14o” value is “−”. For the same molecule, in data set [2], the “products produced from dodecane (GC-MS)” value was 5-dodecanol and the “ω-7 hydroxylase activity C12alk” value is “++ (++ 0.1 million < RA < 1 million)”.

B2: CYP505Ak: CYP505 cytochrome P450 monooxygenase from Aspergillus kawachii, SEQ ID No 2 (protein)
chain: MRDAERIPGPTPLPVVGNLFDIDLEHVLQSVIGLANKYGPLFQITINGEKQIFATSQALVDELCDESRFHKAVASGLENLRMLAHDGLFTAYHGERGWGIAHRILVPAFGPLRIQSMFDDMGDLAQQLCLKWARQGASNSINITDDFTRLTLDTIALCTMDFRLNSFYNNDTMHPFVESMLYVLREADVQSALPGIANSVRIMAHRRMLKNIEAMRTIARDIIHDRRKKENPADDLLNTLLNGRDPVTGEGMSDESIIDNVITFLVAGHETTSGLLSFTFYYLVQHPDILKKAQKEVDETVGQAQISVQHLAELPYIDAILKESLRMMPTAPGFTVTPKKAETLGGKWLLNAGQPINVLLPACLRDRSIFGPNADEFSPGRMLAENFSKLPPNSWKPFGNGERSCIGRAFAWQEAQLVVAMILQNFDLVPDDPSYTLRIKETLTIKPDGFRVRATLRHRQTATGLFQHTLSARNDTSLASSSAHFIKKSEDQAPAGGRPICFFYGSNSGTCKALAHRLASDLMPYGFTDQKLAVLDTAVDNLPRDQPVIILTTTYDGQPTDDAKKFVAWLESGKVPALQGISYAVFGCGHHDWTQTFYRIPTLIDELMHKAGATRLAPRGTANAAVSDLFSDLEAWEETSLLPALRETFLLSSSSDLEPLNLHQLQISLSKPRRIDLHKDLMEARVTTVRILTNPDTPEKRHIEFRFQGDTTLRPGDHVNVLPVNPPSTVLRVLAQFNLAPDYSITINSFNTLGLPQATPVSASELFSAYVELSQPATRNNLRILAATAQSDEDKQELIHLQDSYDSLVRDKRVSVLDLLEQFPSVSLPIAAFISMLPALRLRTYSLSLAPSFKPSHGSLTFSVVNEPARNGNRRYLGVGSNYLASLTPGSILYLSPRPAKEAFHLPVDQSRIPIIMICAGSGLAPFLSFIQDRMIWQQQDKPLARALLFFGCGGRFLDDLYHEELSEFEAAGVVDVRRAYSKVLDYDMARGCKYVQDRLVAEANAIRHLWAQDATIYVCGSADMAKGVEGVLEKLLGMLPRERYVTEIYQMQTRDNVSEWLI
modifications: Aspergillus niger
For B2, in data set [1], the “products produced from tetradecanoic acid (GC-MS)” value is given as “only 7-hydroxy tetradecanoic acid”. In data set [2], the “products produced from dodecane (GC-MS)” value is 5-dodecanol and the “ω-7 hydroxylase activity C12alk” value is “++ (++ 0.1 million < RA < 1 million)”.

B3: CYP505E1: CYP505 cytochrome P450 monooxygenase from Aspergillus niger, SEQ ID No 3 (protein, listed as Aspergillus kawachii)
chain: MKDAERIPGPKPLPVVGNLFDIDPEHSLESIVAFAEKFGPLFQITINGEKQIFATSQALVDELCDELRFHKAVVTGLEILRLLAHDGLFTAYHGERGWGIAHRILVPAFGPLRIRNMLDDMSDVAQQLCLKWARQGGSTSINITEDFTRLTLDTIALCTMGFRLNSFYNNETMHPFVQSMLYVLREADIQANLPGIANSIRVSAQRRMHKNIEAMRTMARGIIQERRKNKNPVDDILNTLLNGRDPVTGEGMSDDSIIDNVITFLIAGHETTSGLLSFTFYFLIQHPHILKKAQEEVDETVGLAQISAQHLAELPYIDAILKESLRLMPTAPGFTVTPKKTEVLGGRWMINAGQPVNVLLPACLRDQSVFGPDADEFRPERMLAENFSKLPPNSWKPFGNGERGCIGRAFAWQEAQLVVAMILQTFDLVPDDPSYQLRIKETLTIKPDGFRIRATLRRGQTATGLSRRSMLVARDGSSEESSNHPAEARGDHAPARGQPVSFFYGSNSGTCKALAHQLASNMMSRGYTTQKLAPLDNAVDNLPRDQPVIILTTTYDGQPTDNAKKFVAWLETGNVLSLQGISYAVFGCGHHDWTQTFYRIPILIDDLMYKAGATRLAPRGAANAAVSDLFSDLEAWEETSLLPALRENFLPSNSTDFDPLNPHQIQLSLSKPRRVDLHKGLIEAKVTAVRVLTSPDTPEKRHLEFCFQGDLSLRPGDHLNILPVNPPSTVSRVLAQFNLAPDYNITVNSFNTLGLPQATPVSASELFSSYVELCQPATRNNLKSLIAATQSDTVKQELNRLYDSYEFIVRDKRVSVLDLLEQFPSISLPIAAFISMLPALRVRTYSLSMAPAFKPSHSSLTFSVINEPAWRGSGQHLGVASNYLASLTSGSIFYFSPRPAKETFHLPKDPSRTPIIMICAGSGLAPFLSFIQDRMVLKQQNKPLAKAFLFFGCRGRSLDDLYHEELSEYEAAGVVEVRRAYSKTPEFDIAKGCRYVQHRLVTEGQAILSLWAQNAIIYVCGSTSMAKGAEAVLQNMLGPLPKERYVTEIF
For B3, in data set [1], the “products produced from tetradecanoic acid (GC-MS)” value is reported as “only 7-hydroxy tetradecanoic acid” and the “ω-7 hydroxylase activity C14o” value is given as “−”. In addition, in data set [2], the “products produced from dodecane (GC-MS)” value was 5-dodecanol and the “ω-7 hydroxylase activity C12alk” value is “+ (+ − 0.01 million < RA < 0.1 million)”.
